Data taken from patent publication US20210246189A1.

Molecular target: transgenic TCR specific for A*02:01/pp65495-503, on transduced PBMCs
Experiment: cell-based or functional assay

Ag-specific CD8 T cell population after 5d culture with 0.5 ug pMHC [%]	Substance	Ag-specific CD8 T cell population after 5d culture with 0.25 ug pMHC [%]
	A1/pp65(363-373) pMHC functionalized with MMAF (irrelevant toxin armed Streptamer) (from UniProt P61769 21-119; P06725 363-373) (peptide-MHC)	60.7
20 to 43.7	un-functionalized A2/pp65495-503 pMHC (Tub-tagged Streptamer) (from UniProt P61769 21-119; P06725 495-503) (peptide-MHC)	64.5
